Results on one molecule are retold here after patent US8581042B2, “Polypeptides having beta-glucosidase activity and polynucleotides encoding same” (Novozymes A/S, priority 2010, dated 2013).

Data set [1] in a line: PCS hydrolysis assay (1-gram ground-sieved, unwashed PCS), cellulose conversion. Type of data set: biochemical. To be noted: supplemented; 50 and 55° C., pH 5.0. The protocol:
Corn stover was pretreated at the U.S. Department of Energy National Renewable Energy Laboratory (NREL) using dilute sulfuric acid. The conditions used for the pretreatment were 0.048 g sulfuric acid/g dry biomass at 190° C. and 25% w/w dry solids for around 1 minute. The water-insoluble solids in the pretreated corn stover (PCS) contained 52% cellulose, 3.6% hemicellulose and 29.8% lignin. Cellulose and hemicellulose were determined by a two-stage sulfuric acid hydrolysis with subsequent analysis of sugars by high performance liquid chromatography using NREL Standard Analytical Procedure #002. Lignin was determined gravimetrically after hydrolyzing the cellulose and hemicellulose fractions with sulfuric acid using NREL Standard Analytical Procedure #003. […] The protein concentration was determined using a BCA Reagent Kit (Pierce, Rockford, Ill., USA).
Penicillium oxalicum GH3 beta-glucosidase (1.5 mg/g cellulose) was added to CELLUCLAST® 1.5L (15 mg/g cellulose) for a total loading of 16.5 mg protein/g cellulose. […] After 72 hour incubation at 50 and 55° C., samples were mixed well, centrifuged at 3000 rpm for 5 minutes, and supernatants were filtered using a 0.45 μm MULTISCREEN® 96-well filter plate (Millipore, Bedford, Mass., USA) and filtrates analyzed for sugar content as described below. […]

Data set [2] can be described thus: pH activity profile on pNPG. Type of data set: biochemical. To be noted: Britton Robinson buffer, 50° C. The protocol:
(§1) Specific activity. 4-Nitrophenyl-beta-D-glucopyranoside (pNPG) was dissolved in DMSO to produce a 100 mM stock solution. Right before assay, the 100 mM pNPG stock solution was diluted 100-fold in 50 mM sodium acetate pH 5 with 0.01% TWEEN® 20 to 1 mM pNPG. Enzyme was diluted to a wide range of concentrations in the same buffer. To 20 μl of the enzyme dilutions (a range of concentration), 100 μl of the 1 mM pNPG solution were quickly added. The reaction was incubated at 40° C. for 20 minutes before the reaction was stopped with 50 μl of 1 M sodium carbonate pH 10, and the absorbance at 405 nm was measured for 4-nitrophenolate production. The specific activity of the Penicillium oxalicum GH3 beta-glucosidase on pNPG was determined to be 72.3±1.7 IU/mg, where […] produce 1 μmole of glucose per minute at 40° C., pH 5.
pH profile. The pH activity profile of the Penicillium oxalicum GH3 beta-glucosidase was determined using the same protocol described above, except the beta-glucosidase was incubated at four different pHs (4, 5, 6, and 7) and one enzyme loading was used, which yielded less than 5% conversion. Britton Robinson buffer (100 mM) was used as the buffer system. The 100 mM Britton Robinson buffer was titrated to a various pH values in the range of 4-7 using 5 M sodium hydroxide and then diluted to 40 mM with deionized water. The pNP-glucose was prepared in the same buffer, and the activity was measured at 50° C. The highest activity was normalized to 100%, and activities at the other pH values were compared to the highest activity and expressed in % activity. The pH profile of the Penicillium oxalicum GH3 beta-glucosidase is shown below.

The nature of data set [3]: Thermostability: residual activity on pNPG after incubation. Type of data set: physicochemical. Particulars: 1 g/L, pH 5. As for the experimental part:
as §1
Thermostability. The Penicillium oxalicum GH3 beta-glucosidase was diluted in 50 mM sodium acetate pH 5 with 0.01% TWEEN® 20 to 1 g/L, and then incubated at 50° C. for 3 days, and 60° C. for 3 hours or 24 hours. The same sample was stored at 4° C. to serve as control. After incubation, the residual activity of the samples was measured using pNPG as substrate, following the same assay protocol described above, but using one enzyme loading which yielded less than 5% conversion. The activity of the sample in 4° C. was normalized to 100%, and the activities of samples at other incubation conditions were compared to the 4° C. activity. The thermostability of the Penicillium oxalicum GH3 beta-glucosidase is shown below.

Data set [4] can be described thus: Specific activity on pNPG. The format is biochemical. Particulars: 40° C., pH 5, 20 minutes. The protocol: as §1

B1: Penicillium oxalicum GH3 beta-glucosidase: Family GH3 beta-glucosidase of Penicillium oxalicum strain IBT5387 (SEQ ID NO: 2), expressed in Aspergillus oryzae and purified (protein, listed as Penicillium oxalicum)
chain: MRSSTTVLAFVSYGSFGIAAAKPIQEHKPELLNSFHGFQIEEPYSPPFYPSPWMNPRAEGWEDAYQKALAFVSQLTLLEKVNLTTGVGWENGPCVGNTGSVPRLGFKGLCLQDSPQGVRFADYASAFTSSQMAAATFDKTVLYERGVAMAQEHKGKGITVQLGPVAGPLGRAPEGGRNWEGFSPDPVLNGIAMAETIKGMQDTGVLACAKHYVGNEQEHFRQAGESAGHGYNIAESISSNIDDRTMHEMYLWPFADAVRAGVASFMCSYNQINNSYGCQNSHTLNKLLKSELGFQGFVMSDWQAQHSGVSSALAGLDMTMPGDTEFDTGLSFWGSNLTIAVLNGTVPEWRIDDMAMRIMAAYFKVGLTIEDQPDVNFNSWTYDTYGYKYFYSKEGYEKVNWHVDVRANHAQQIRETAAKGTVLLKNTNGALPLKRPSFVAVVGEDAGPNPKGPNGCPDRGCDEGTLAMGWGSGSTQFPFLVTPDSAIQAKVLEYGGRYESILDNYDESAISALVSQPDATCIVFGNSDSGEAFITVDGNWGDRNNLTLWQNADAVIRNVSALCSNTIVVLHTVGPVLLTDYYEHPNITAIVWAGLPGEESGNALVDILWGDVNPAGRTPFTWAKSREDYGTDVMYVPNNGEQAPQQSFSEGIFLDYRHFDQAGIDPIYEFGHGLSYTNFSYSDLRIVTKHVRPYRPTTGMTTQAPIIGPLPSPNLTEYQFPATFKYIPAFIYPYLNSTESLRAASKDPHYGSTAFIPPHALDSSPQPLNPAGDPIASGGNSMLYQELYEITAKITNTGNLAGDEVVQLYVNLGGDNPPRQLRGFDRIHLLPGQSKVFRATLTRRDLSNWDVAAQNWRIIRSAKEVYVGRSSRDLPLSARLESW
In the case of B1, in data set [1], the “effect on CELLUCLAST 1.5L in PCS hydrolysis” value is on record as “synergistic effect”. Further, the “Activity (relative to highest activity)” value came to 38% in data set [2] (pH 4.0), 99% in data set [2] (pH 5.0), 100% in data set [2] (pH 6.0) and 36% in data set [2] (pH 7.0). The “Residual activity on pNPG” value in data set [3] (incubation 4° C. (control, normalized to 100%)) stood at 100%; in data set [3] (incubation 50° C., 72 hours), 100%; in data set [3] (incubation 60° C., 3 hours), 100%; in data set [3] (incubation 60° C., 24 hours), 100%; in data set [3] (incubation 70° C., 24 hours), 76%. For the same molecule, the “specific activity on pNPG” value in data set [4] came out at 72.3±1.7 IU/mg.
